Laboratory results taken from paper PMC6504924, “Utilizing a Simple Method for Stoichiometric Protein Labeling to Quantify Antibody Blockade” (Scientific Reports, 2019).

T1: unlabeled VEGF165a homodimer purified in the same manner (with CDN N-terminal appendage)
T1 chain: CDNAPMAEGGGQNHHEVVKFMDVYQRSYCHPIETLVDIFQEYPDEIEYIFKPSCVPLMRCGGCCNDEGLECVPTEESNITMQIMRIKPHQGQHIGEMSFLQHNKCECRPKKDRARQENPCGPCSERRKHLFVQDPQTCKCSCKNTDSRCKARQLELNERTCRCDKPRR


Experiments:
[1] = biological target: the molecule itself; assay: SDS-PAGE with and without reducing agent; purified growth factors resolved by SDS-PAGE in the presence and absence of 100 mM dithiothreitol (DTT)
[2] = biological target: T1, unlabeled VEGF165a homodimer purified …; assay: as above; conditions: both partners purified

| Binder | stoichiometry N [1] | stoichiometry N [2] |
| --- | --- | --- |
| unlabeled PDGF-BB homodimer purified in the same manner (with CDN N-terminal appendage) (ligand, three-amino acid N-terminal appendage left after HaloTEV cleavage of the modified TEV site EDLYFQC; platelet-derived growth factor subunit B (PDGF-B); Disulfide-linked homodimer; also called PDFG-B; source: HEK293T, transiently expressed as secreted HaloTag fusion, purified (HaloLink beads, HaloTEV release); not shown: HaloTag, N-terminal, cleaved) CDNSLGSLTIAEPAMIAECKTRTEVFEISRRLIDRTNANFLVWPPCVEVQRCSGCCNNRNVQCRPTQVQLRPVQVRKIEIVRKKPIFKKATVTLEDHLACKCETVAAARPVT | 2 |  |
| unlabeled VEGF165a homodimer purified in the same manner (with CDN N-terminal appendage) (ligand, disulfide-linked homodimer; unlabeled; mature VEGF165 limits by convention (191-aa AUG-initiated isoform precursor, signal 1-26) / disulfide-linked homodimer; unlabeled; mature VEGF165 limits by …) CDNAPMAEGGGQNHHEVVKFMDVYQRSYCHPIETLVDIFQEYPDEIEYIFKPSCVPLMRCGGCCNDEGLECVPTEESNITMQIMRIKPHQGQHIGEMSFLQHNKCECRPKKDRARQENPCGPCSERRKHLFVQDPQTCKCSCKNTDSRCKARQLELNERTCRCDKPRR |  | 2 |
